Bridge positions count the residues as written; N and C are the ends. Ends that are not written are not given here.

The assay has as its target TAB-XC154 자가면역항체. The assay is described as follows: competition: XC154 antibody (100 ng) pre-incubated with 10^11 or 10^12 XC154p1 phage, then flow cytometry on HepG2 or LnCap-LN3 cells.

For CLPSWFHRC (disulfide 1-9 (inferred); also: displayed on phage) [XC154p1 에피토프 발현 파아지 (…)], the percent inhibition is more than 90%.

(Values after patent KR20120134547A.)
